Target: FcγRIIIa on human PBMC effector cells (heterozygous V158/F158 or allotype not stated) (human) (UniProt P08637)
Assay: cell-based or functional assay

FcγRIIIa on human PBMC effector cells (heterozygous V158/F158 or allotype not stated) (human), sequence (P08637 17-254): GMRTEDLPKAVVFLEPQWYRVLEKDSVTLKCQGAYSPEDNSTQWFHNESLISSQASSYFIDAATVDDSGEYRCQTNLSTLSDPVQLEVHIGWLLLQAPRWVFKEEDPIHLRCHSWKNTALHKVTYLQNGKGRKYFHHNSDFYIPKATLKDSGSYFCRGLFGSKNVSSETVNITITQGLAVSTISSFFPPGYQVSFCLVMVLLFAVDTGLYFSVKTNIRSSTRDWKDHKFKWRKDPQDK

Row | ADCC EC50, DoHH-2 target cells, human PBMCs [ng/mL] | ADCC log(EC50), DoHH-2 target cells, human PBMCs | Substance
1 | 3 | 0.49 log(ng/ml) | S239D/I332E alemtuzumab (antibody)
2 | 4 | 0.6 log(ng/ml) | V264I/I332E alemtuzumab (antibody)

Reference: patent US20090010920A1
